doi:10.1101/2020.04.14.040436

How the values were obtained:
[1] = molecular target: 14-3-3ε/γ heterodimer (His6-tagged 14-3-3ε with untagged 14-3-3γ) (human) (UniProt P62258); experiment: SPR
[2] = molecular target: His6-tagged 14-3-3ε (human) (UniProt P62258); experiment: SPR
[3] = molecular target: human 14-3-3ε devoid of the C-terminal flexible tail (14-3-3εΔC) (human); experiment: SEC
Sequence of human 14-3-3ε devoid of the C-terminal flexible tail (14-3-3εΔC) (human) (B3KY71 whole entry, stated change not applied): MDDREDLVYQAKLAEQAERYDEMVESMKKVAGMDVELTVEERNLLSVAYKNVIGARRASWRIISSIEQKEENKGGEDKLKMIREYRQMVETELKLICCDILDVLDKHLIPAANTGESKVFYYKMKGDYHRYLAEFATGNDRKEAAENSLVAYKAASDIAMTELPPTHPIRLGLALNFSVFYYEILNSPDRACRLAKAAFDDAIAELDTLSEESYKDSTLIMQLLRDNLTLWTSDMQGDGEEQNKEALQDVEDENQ

B1: STARD1_(46-285)-S56A/L59P phosphorylated at Ser57 and Ser195 (domain or fragment)
chain: STWINQVRRRASLPGSRLEETLYSDQELAYLQQGEEAMQKALGILSNQEGWKKESQQDNGDKVMSKVVPDVGKVFRLEVVVDQPMERLYEELVERMEAMGEWNPNVKEIKVLQKIGKDTFITHELAAEAAGNLVGPRDFVSVRCAKRRGSTCVLAGMATDFGNMPEQKGVIRAEHGPTCMVLHPLAGSPSKTKLTWLLSIDLKGWLPKSIINQVLSQTQVDFANHLRKRLESHPASEARC
modifications: phosphoserine at 57; phosphoserine at 195
A Kd [1] of 15 µM, a Kd [2] of 13 µM and a stoichiometry N (STARD1 per 14-3-3 subunit (2:2)) [3] of 1 were found for B1 in this work. For the same binder, the stoichiometry N ([3]; scale: STARD1 per 14-3-3 subunit) was 0.5.
